In publication PMC4070425:

Experiments:
[1] = biological target: LAI Env N611A (variant virus) (HIV-1 strain LAI)
[2] = biological target: JR-CSF Env wild type (pseudovirus) (HIV-1 isolate JR-CSF) (UniProt P20871)
[3] = biological target: LAI Env E647A (variant virus) (HIV-1 strain LAI)
[4] = biological target: LAI Env E647G (variant virus) (HIV-1 strain LAI)
[5] = biological target: LAI Env N637K (variant virus) (HIV-1 strain LAI)
[6] = biological target: JR-CSF Env S613A (variant pseudovirus) (HIV-1 isolate JR-CSF)
[7] = biological target: LAI Env A501T (variant virus) (HIV-1 strain LAI)
[8] = biological target: JR-FL Env E647G (variant pseudovirus) (HIV-1 isolate JR-FL)
[9] = biological target: JR-CSF Env N637K (variant pseudovirus) (HIV-1 isolate JR-CSF)
[10] = biological target: JR-CSF Env N611A (variant pseudovirus) (HIV-1 isolate JR-CSF)
[11] = biological target: JR-FL Env N637A (variant pseudovirus) (HIV-1 isolate JR-FL)
[12] = biological target: LAI Env N637A (variant virus) (HIV-1 strain LAI)
[13] = biological target: JR-FL Env N611A (variant pseudovirus) (HIV-1 isolate JR-FL)
[14] = biological target: JR-FL Env E647A (variant pseudovirus) (HIV-1 isolate JR-FL)
[15] = biological target: JR-CSF Env N637A (variant pseudovirus) (HIV-1 isolate JR-CSF)
[16] = biological target: LAI Env wild type (virus) (HIV-1 strain LAI) (UniProt P03377)
[17] = biological target: JR-FL Env N611D (variant pseudovirus) (HIV-1 isolate JR-FL)
[18] = biological target: JR-CSF Env E647A (variant pseudovirus) (HIV-1 isolate JR-CSF)
[19] = biological target: JR-CSF Env E647G (variant pseudovirus) (HIV-1 isolate JR-CSF)
[20] = biological target: JR-CSF Env T639A (variant pseudovirus) (HIV-1 isolate JR-CSF)
[21] = biological target: LAI Env N611D (variant virus) (HIV-1 strain LAI)
[22] = biological target: JR-CSF Env N611D (variant pseudovirus) (HIV-1 isolate JR-CSF)
[23] = biological target: JR-FL Env N637K (variant pseudovirus) (HIV-1 isolate JR-FL)

UniProt P20871, sequence (P20871 32-848): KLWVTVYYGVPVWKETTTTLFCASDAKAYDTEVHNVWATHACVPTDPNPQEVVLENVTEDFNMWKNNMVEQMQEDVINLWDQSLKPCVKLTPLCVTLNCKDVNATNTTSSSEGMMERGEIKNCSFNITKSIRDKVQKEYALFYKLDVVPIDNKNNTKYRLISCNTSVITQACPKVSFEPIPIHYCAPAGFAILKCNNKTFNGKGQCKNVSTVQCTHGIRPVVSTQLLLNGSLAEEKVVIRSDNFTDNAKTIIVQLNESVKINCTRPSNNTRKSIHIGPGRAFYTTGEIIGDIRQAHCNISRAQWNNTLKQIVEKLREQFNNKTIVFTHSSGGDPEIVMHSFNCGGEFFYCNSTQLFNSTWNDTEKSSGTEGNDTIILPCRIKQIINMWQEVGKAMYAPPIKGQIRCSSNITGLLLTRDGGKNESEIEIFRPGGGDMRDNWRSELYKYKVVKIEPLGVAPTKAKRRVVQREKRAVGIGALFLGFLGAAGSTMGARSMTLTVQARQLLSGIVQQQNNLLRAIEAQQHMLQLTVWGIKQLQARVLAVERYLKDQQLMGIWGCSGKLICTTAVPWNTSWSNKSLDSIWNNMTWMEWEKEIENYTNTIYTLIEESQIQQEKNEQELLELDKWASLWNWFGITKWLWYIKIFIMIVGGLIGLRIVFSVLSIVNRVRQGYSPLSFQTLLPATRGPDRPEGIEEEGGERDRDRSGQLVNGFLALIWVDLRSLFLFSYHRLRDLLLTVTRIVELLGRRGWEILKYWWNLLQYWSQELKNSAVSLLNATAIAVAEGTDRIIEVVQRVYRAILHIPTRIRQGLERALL

PGT151 (antibody)
%Maximum neutralization (LAI) [1]: 81%
%Maximum neutralization (JR-CSF) [2]: 93%
%Maximum neutralization (LAI) [3]: 96%
%Maximum neutralization (LAI) [4]: 95%
%Maximum neutralization (LAI) [5]: 37%
%Maximum neutralization (JR-CSF) [6]: 41%
%Maximum neutralization (LAI) [7]: 75%
%Maximum neutralization (JR-FL) [8]: 94%
%Maximum neutralization (JR-CSF) [9]: 20%
%Maximum neutralization (JR-CSF) [10]: 44%
%Maximum neutralization (JR-FL) [11]: 65%
%Maximum neutralization (LAI) [12]: 70%
%Maximum neutralization (JR-FL) [13]: 31%
%Maximum neutralization (JR-FL) [14]: 72%
%Maximum neutralization (JR-CSF) [15]: 50%
%Maximum neutralization (LAI) [16]: 100%
%Maximum neutralization (JR-FL) [17]: 8%
%Maximum neutralization (JR-CSF) [18]: 33%
%Maximum neutralization (JR-CSF) [19]: 7%
%Maximum neutralization (JR-CSF) [20]: 52%
%Maximum neutralization (LAI) [21]: 45%
%Maximum neutralization (JR-CSF) [22]: 0%
%Maximum neutralization (JR-FL) [23]: 33%
